The results in this text go back to publication PMC3907550.

For experiment [1], the target named is HA2His6-tagged Arabidopsis ADK (Arabidopsis) (UniProt Q9LZG0).
Experiment [2] shares this target. This is another data set of the same source.

Sequence of UniProt Q9LZG0 (Q9LZG0 whole entry): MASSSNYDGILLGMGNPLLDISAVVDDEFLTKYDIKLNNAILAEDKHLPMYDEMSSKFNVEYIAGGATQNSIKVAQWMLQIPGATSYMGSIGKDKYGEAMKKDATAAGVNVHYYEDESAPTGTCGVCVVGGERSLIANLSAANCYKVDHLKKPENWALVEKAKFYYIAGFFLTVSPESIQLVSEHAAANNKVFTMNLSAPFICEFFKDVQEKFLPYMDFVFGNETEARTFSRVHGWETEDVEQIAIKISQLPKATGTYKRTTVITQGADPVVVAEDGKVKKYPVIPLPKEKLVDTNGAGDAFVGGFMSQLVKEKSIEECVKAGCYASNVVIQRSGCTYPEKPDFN

“HA2His6-tagged SnRK1 kinase domain (SnRK1-KD; amino acids 1-343) (from UniProt P92958 1-343) (domain or fragment)” returned an ADK activity (labeled 5′-AMP from adenosine and γ32P-ATP) with a two-fold molar excess of HA2His6-SnRK1-KD, against ADK+GFP in experiment [1] of 6 fold. Further, in experiment [2], the ADK activity against increasing HA2His6-SnRK1-KD:ADK molar ratio, up to 4∶1 was 90 % of maximum.
